Results on 98 substances are retold here after the supplement of paper PMC12042874.

± gives the uncertainty stated by the source.

The series can be described thus: amyloid nucleation score (Sup35N fusion, yeast selection) (log enrichment); library NNK3; higher = more nucleation; inactive = no reads after selection. In a few lines: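 DiMSum was used to calculate nucleation scores as log enrichment of output over input reads, centred on the mode score of non-aggregating sequences. Sequences with fewer than 100 input reads were not scored. Input and output came from Illumina sequencing of plasmid inserts in psi-negative yeast expressing peptides of 20 random codons fused to Sup35N, induced 24 hours with 100 μM copper sulfate and then grown 7 days at 30°C on medium lacking adenine and uracil.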

GPRMCMQLRS: the amyloid nucleation score entry was “inactive”.

For the substance SFYSNGKLLVILFATMMD, the amyloid nucleation score entry is “inactive”.

As to CQKRETVFIKRD, the amyloid nucleation score entry is “inactive”.

For the substance CDMRP, the amyloid nucleation score result is “inactive”.

For MWDIGGARAKDCEGLSVNCI, the amyloid nucleation score entry was “inactive”.

Regarding NREQLSSNKRNFASHRWTSV, the amyloid nucleation score entry was “inactive”.

On to VWVLSA, for which the amyloid nucleation score result is “inactive”.

With VLMQSS, the amyloid nucleation score is -0.36 ± 1.2.

Regarding LVSFWSVRFIICYLRLGLSC, the amyloid nucleation score entry was “inactive”.

Consider GVSDVVFWSIGYHGRRISQS, for which the amyloid nucleation score result is “inactive”.

Regarding SFLDMIRCDINLIYKRHRLG, the amyloid nucleation score entry was “inactive”.

In the case of VRIFYMV, the amyloid nucleation score entry was “inactive”.

KPNFEPSLAW: the amyloid nucleation score entry is “inactive”.

Consider ADFGLHRNCRRGCLGMFFL, for which the amyloid nucleation score result was “inactive”.

Turning to IRRHYAYCYNISTITVIAEI, the amyloid nucleation score entry is “inactive”.

Take FIPGAMVRYQGRILLRSDAG: the amyloid nucleation score result was “inactive”.

With YLSGIPTVVIHVIFGMKDW, the amyloid nucleation score result was “inactive”.

With YHLSSMVTVWKDSVMLAT, the amyloid nucleation score entry is “inactive”.

Substance RDTYQSSCDWQW showed an amyloid nucleation score of 0.077 ± 0.87.

The substance LFTACNLKIDVLLSTRSFAL had an amyloid nucleation score of 1.6 ± 0.079.

Consider DSLSDLLYSFKFKG, for which the amyloid nucleation score entry is “inactive”.

The substance FMSRMRKWFGCSNTHSSGTR had an amyloid nucleation score of 1.77 ± 0.078.

Substance YISSPSIWLCISCEHRGTSA came in with an amyloid nucleation score of 2.92 ± 0.07.

For the substance LIKSSRLCLNRWEWAAGSGM, the amyloid nucleation score entry was “inactive”.

Turning to WIFRFAYVVHDAWFSENRYP, the amyloid nucleation score result was “inactive”.

Substance RNSFVLWMVSSV had an amyloid nucleation score of -0.01 ± 0.45.

On to RLHTMWTYP, for which the amyloid nucleation score entry was “inactive”.

As to CLRLGLIMDTKK, the amyloid nucleation score result was “inactive”.

As to VFPFIRNKV, the amyloid nucleation score entry is “inactive”.

With RSNNGSSERGGDIEDLSPNK, the amyloid nucleation score result was “inactive”.

Consider SNALYCPWHWLIHQVV, for which the amyloid nucleation score entry was “inactive”.

In the case of VAFDIINRQNIINEWGCWID, the amyloid nucleation score result was “inactive”.

For ERFNPDEVCE, the amyloid nucleation score entry is “inactive”.

GVRHLYVPMFHFVIMGRWHH: the amyloid nucleation score entry is “inactive”.

As to IKGQSLSNSVFWSGGLDLRV, the amyloid nucleation score result was “inactive”.

Turning to HMFMRNLEMRVGHSFHRLRD, the amyloid nucleation score entry is “inactive”.

In the case of PGSYGHGGWNTEFGCQVAIW, the amyloid nucleation score was -0.593 ± 1.9.

Consider YRINDKSFNVISGIVFSVVR, for which the amyloid nucleation score result was “inactive”.

Regarding LFRGRCAPLFSQSVA, the amyloid nucleation score result was “inactive”.

Consider NRTDHTLNCVEIFAWIWFNL, for which the amyloid nucleation score entry is “inactive”.

Take LTLNSKVTDM: the amyloid nucleation score result is “inactive”.

On to QTDMWIDTWKVQPVWIEDEG, for which the amyloid nucleation score entry is “inactive”.

Consider LNSYSLNWRRCMGVQHSLYP, for which the amyloid nucleation score result was “inactive”.

Turning to ISYVKFY, the amyloid nucleation score result is “inactive”.

For the substance NIIVWPVCGILLYTHSIS, the amyloid nucleation score entry was “inactive”.

Turning to YWIAIFTLHFLLDPRFRNSM, the amyloid nucleation score result was “inactive”.

With NYTVLYGNSLSFFRSHLCRV, the amyloid nucleation score entry was “inactive”.

With FNERDWCNSSGSSHVLWSSM, the amyloid nucleation score entry was “inactive”.

MRYLDLYGRARNVRIRVRRT: the amyloid nucleation score result was “inactive”.

As for FTVGILFGNLHLEFGVKVND, the amyloid nucleation score worked out at 1.6 ± 0.071.

As for LYGLVWYTQVGLLNVYSKIY, the amyloid nucleation score came to 1.24 ± 0.18.

For SLTRQLEPADNTDPRCVKSV, the amyloid nucleation score entry is “inactive”.

Consider VGRAD, for which the amyloid nucleation score result is “inactive”.

On to LSGACVHSAAGSALATQYAR, for which the amyloid nucleation score result was “inactive”.

With FTMSYYKYLSHGRMRRGT, the amyloid nucleation score entry was “inactive”.

GNLWT yielded an amyloid nucleation score of 0.637 ± 0.12.

As for KTKFVTSLNFTVHFKCWNCD, the amyloid nucleation score turned out to be 1.51 ± 0.097.

Take CVLNW: the amyloid nucleation score result is “inactive”.

LYLTSCDIYGAGTIGRWVAV: the amyloid nucleation score entry is “inactive”.

Consider VGGQISRDNGCLSILMSFDN, for which the amyloid nucleation score entry is “inactive”.

FSYVCFGYV yielded an amyloid nucleation score of 0.337 ± 0.14.

In the case of YSVPRKSIICIKFDGFWRCV, the amyloid nucleation score came to 1.96 ± 0.096.

IYLNFNKILLMILQIQLWGN registered an amyloid nucleation score of -0.19 ± 0.64.

Take ASLTYY: the amyloid nucleation score result was “inactive”.

Take YFVFKIRKDVELLVYI: the amyloid nucleation score result is “inactive”.

TRNCGRSGYRL showed an amyloid nucleation score of 1.13 ± 0.089.

For LDKEFAYIYSYC, the amyloid nucleation score entry is “inactive”.

Consider LSILHYSLNCLYHRSYMCIL, for which the amyloid nucleation score entry is “inactive”.

As for RKGTWPHLGTVNRRVQRWVY, the amyloid nucleation score entry is “inactive”.

On to IYSRVSRLIH, for which the amyloid nucleation score result was “inactive”.

For GSDVMSGG, the amyloid nucleation score entry was “inactive”.

In the case of YLSPVKRRYD, the amyloid nucleation score result is “inactive”.

Turning to SHSVYIFFVSTFVGSLWSLP, the amyloid nucleation score result was “inactive”.

Substance KVIDSLVVSRLLTCASRHIR gave an amyloid nucleation score of 1.32 ± 0.077.

AYSRIHSWRMVCKRSNNGVG: the amyloid nucleation score amounted to 1.41 ± 0.1.

As to HSINV, the amyloid nucleation score result is “inactive”.

Consider DFFLDYL, for which the amyloid nucleation score entry was “inactive”.

Consider YCTGLIFPAFSNLEDSTLLF, for which the amyloid nucleation score result was “inactive”.

With VYSTSDAEVIVSVSRRGDFA, the amyloid nucleation score entry is “inactive”.

Take VLSFRSRTSKNKFRGAQGVT: the amyloid nucleation score entry was “inactive”.

As for IWRDLGRLIQLFWNEIYHVN, the amyloid nucleation score result is “inactive”.

Regarding FLDEFLWSCGIGFLRFIKDV, the amyloid nucleation score entry was “inactive”.

On to SHVKYNNMW, for which the amyloid nucleation score result was “inactive”.

As for MPWGTWGAS, the amyloid nucleation score result is “inactive”.

For the substance WSLCGDVRTQHINHVSVQVS, the amyloid nucleation score result was “inactive”.

In the case of MYERRSLDKKVHRCYILALT, the amyloid nucleation score entry is “inactive”.

On to HLPWFRVGATDMLSYTKSLG, for which the amyloid nucleation score entry was “inactive”.

On to PDKWSPGAYVKWWVGTKVQM, for which the amyloid nucleation score result was “inactive”.

With SEHDDGMVSPKTHTVGSYTC, the amyloid nucleation score entry was “inactive”.

Consider FNVTGFSIIGKFIHDWFFLL, for which the amyloid nucleation score result was “inactive”.

For MSHDTFDV, the amyloid nucleation score result was “inactive”.

As for AFVSPYR, the amyloid nucleation score result was “inactive”.

As for AIMFLFLYTRGAYAYYLGLL, the amyloid nucleation score result was “inactive”.

For the substance MSMRLRIYKFFEICANSMMP, the amyloid nucleation score result is “inactive”.

Consider KNWYKVMSRYYKC, for which the amyloid nucleation score was found to be 0.338 ± 0.38.

Regarding ISVLVKWLVAERTSYWIMIP, the amyloid nucleation score result is “inactive”.

As for ECEWDMVH, the amyloid nucleation score result is “inactive”.

Turning to SYSSMCLPKNTKAHASWC, the amyloid nucleation score result was “inactive”.
